Substitutions are numbered along the chain they refer to. Values joined by “and” are separate entries in the source; they are usually repeats but may differ in a detail not shown here. Equal values may be shown once.
Assays:
Conditions in all cases: remark: other sources report otherwise
[1] = target: SARS-CoV-2 Spike protein, wild type, full length (SARS-CoV-2), P0DTC2
[2] = target: T1, SARS-CoV-2 Spike (S) protein, wild type, full length (SARS-CoV-2), P0DTC2
[3] = target: T1, SARS-CoV-2 Spike (S) protein, wild …; remark: listed apart in the source
[4] = target: SARS-CoV-2 Spike (S) protein, wild type, full length, expressed on the surface of transiently transfected CHO cells (SARS-CoV-2), P0DTC2
[5] = target: SARS-CoV-2 Spike (S) protein, wild type (SARS-CoV-2), P0DTC2; test: HT-SPR Carterra LSA; mAb coupled to chip, Spike in solution; 1:1 Langmuir fit

B1: antibody 464 (antibody, V domains shown)
VH: QVQLVQSGAEVKKPGASVKVSCKVSGYTLTELSMHWVRQAPGKGLEWMGGFDPEDGETIYAQKFQGRVTMTEDTSTDTAYMELSSLRSEDTAVYYCATARAFGVANWFDPWGQGTLVTVSS
VL: QSVLTQPPSASGTPGQRVTISCSGSSSNIGSNYVYWYQQLPGTAPKLLIYRNNQRPSGVPDRFSGSKSGTSASLAISGLRSEDEADYYCAAWDDSLSGLYVFGTGTKVTVL
In the case of B1, the binding signal, fold over isotype control (fold over isotype) [1] is reported as 1.27 and 0.99 and 1.04.

B2: antibody 267 (antibody, V domains shown)
VH: EVHLVQSGAEMKKPGATVKISCKVSGNTFIDHYIQWVQQAPGKGFEWMGLVDPEDGETIYAEKFQGRVTITADTSRDTAYMELSSLKSEDTAVYYCGTHGDYLDYWGQGTLVTVSS
VL: FYELTQPSSVSVSPGQTALITCSGDVVAKKYARWFQQKAGQAPVLVIYKDTERPSGIPERISGSSSGTTVTLTISGAQVEDEADYYCYSATDNNLVFGGGTKVTVL
B2 gave a bead binding signal (fold over isotype) (fold over isotype) [2] of 312.

B3: antibody 499 (antibody, V domains shown)
VH: EVQLVESGGGLVKPGGSLRLSCAASGFTFSSYSMNWVRQAPGKGLEWVSSISSSSSYIYYADSVKGRFTISRDNAKNSLYLQMNSLRAEDTAVYYCARAPAGIVVGPDYWGQGTLVTVSS
VL: NFMLTQPHSVSESPGKTVTISCTGSSGSIASNYVQWYQQRPGSAPTTVIFEDNQRPSGVPDRFSGSIDSSSNSASLTISGLKTEDEADYYCQSYHSSNPHVVFGGGTKLTVL
For B3, the median fluorescence, fold over isotype control (fold over isotype) [3] was 0.9 and the binding signal, fold over isotype control (fold over isotype) [1] was 1120 and 386 and 432.

B4: Antibody 389 (antibody, V domains shown)
VH: QVQLVESGGGVVQPGRSLRLSCAASGFTFSSYAMHWVRQAPGKGLEWVAVISYDGSNKYYADSVKGRFTISRDNSKNTLYLQMNSLRAEDTAVYYCASQGRMYVRGVDYGVYWGQGTLVTVSS
VL: NFMLTQPHSVSESPGKTVTISCTGSSGSIASNYVQWYQQRPGSAPTTVIYEDNQRPSGVPDRFSGSIDSSSNSASLTISGLKTEDEADYYCQSYDSSKISHAVFGGGTQLTVL
For B4, the MFI fold over isotype control (fold over isotype) [4] was 0.72.

B5: antibody 495 (antibody, V domains shown)
VH: QITLKESGPTLVKPTQTLTLTCTFSGFSLSTSGVGVGWIRQPPGKALEWLALIYWDDDKRYSPSLKSRLTITKDTSKNQVVLIMTNMDPVDTATYYCAHRDSSSWFDLDAFDIWGQGTMVIVSS
VL: QSVLTQPPSVSEAPRQRVTISCSGSSSNIGNNAVNWYQQLPGKAPKLLIYYDDLLPSGVSDRFSGSKSGTSASLAISGLQSEDEADYYCAAWDDRLNGPVFGGGTKLTVL
B5 was tested, and the median fluorescence, fold over isotype control (fold over isotype) [3] was 0.83 and the binding signal, fold over isotype control (fold over isotype) [1] was 1090 and 384 and 530.

B6: Antibody 390 (antibody, V domains shown)
VH: EVQLVESGGGLIQPGGSLRLSCAASGFTVSSNYMSWVRQAPGKGLEWVSIIYSGGSTYYADSVKGRFTISRDNSKNTLYLQMNSLRAEDSAVYSCATTMVRGLIISYYYGMDVWGQGTTVTVSS
VL: QSALTQPASVSGSPGQSITISCTGTSSDVGGYNYVSWYQQHPGKAPKLMIYEVSNRPSGVSNRFSGSKSGNTASLTISGLQAEDEADYYCSSYTSSSTLVFGGGTKLTVL
With B6 the MFI fold over isotype control (fold over isotype) [4] was 0.73.

B7: anti-SARS-CoV-2 antibody 493 (antibody, V domains shown)
VH: B6 VH with G16R, S31I, N32T, I50L, T57S, S90T, S94Y, L103V
VL: B6 VL
Binder B7 has a kon [5] of 75000 M⁻¹ s⁻¹.

B8: antibody 269 (antibody, V domains shown)
VH: QLQLQESGPGLVKPSETLSLTCTVSGGSISSSSYYWGWIRQPPGKGLEWIGNIYYSGSTYYNPSLKSRVTISVDTSKNQFSLKLSSVTAADTAVYYCAGEELDIVATIYSSRYYYYGMDVWGQGTTVTVSS
VL: B6 VL with S96T
For B8, the bead binding signal (fold over isotype) (fold over isotype) [2] was 480 and 191 and 188.

B9: Antibody 413 (antibody, V domains shown)
VH: EVQLVESGGGLIQPGGSLRLSCAASGFTVSGNYMNWVRQAPGKGLEWVSVIYSGGSTYYADSVKGRFTISRANSKNTLYLQMNSLRAEDTAVYYCASTSLVRGLIILYYYGMDVWGQGTTVTVSS
VL: B6 VL
Work on B9 yielded an MFI fold over isotype control (fold over isotype) [4] of 1.11.

B10: antibody 270 (antibody, V domains shown)
VH: QVQLVQSGAEVKRPGTSVKVSCKTSGYTFTDHFIHWVRQAPGRRLEWMGWINPNSGGTNYAQNFQGRVTMTRDTSITTAYMDLTRLTSDDTAIYYCAREAAYGSGNLNWFDPWGQGTRVTVSS
VL: NFMLTQPHSVSESPGKTVTISCTGSSGSIAANYVHWYQQRPGSAPRTVIYEDNQRPSGVPDRFSGSIDSSSNSASLTISGLKTEDEADYYCQSYDGDSWVFGGGTKLTVL
Work on B10 yielded a bead binding signal (fold over isotype) (fold over isotype) [2] of 305.

B11: antibody 485 (antibody, V domains shown)
VH: QVQLQESGPGLVKPSGTLSLTCAVSGASISSSNWWSWVRQPPGKGLEWIGEIYHSGSTNYNPSLKSRVTISVDKSKNQFSLKLSSVTAADTAVYYCARRSYYGSGSYYPFDYWGQGTLVTVSS
VL: QSALTQPASVSGSPGQSITISCTGTSSDVGSYNLVSWYQQHPGKAPKLMIYEGRKRPSGVSNRFSGSKSGNTASLTISGLQAEDEADYYCCSYAGSSTYVFGTGTKVTVL
Work on B11 yielded a binding signal, fold over isotype control (fold over isotype) [1] of 510.
